{
  "source": "patent US20220098635A1",
  "key": {"[1]": {"molecular_target": "RGD peptide (cyclo(Arg-Gly-Asp-D-Phe-Cys))", "assay": "cell-based or functional assay"}, "[2]": {"molecular_target": "RGD peptide (cyclo(Arg-Gly-Asp-D-Phe-Cys))"}, "[3]": {"molecular_target": "RGD peptide (cyclo(Arg-Gly-Asp-D-Phe-Cys))", "remark": "listed apart in the source"}, "[4]": {"molecular_target": "RGD peptide (cyclo(Arg-Gly-Asp-D-Phe-Cys))", "remark": "listed apart in the source"}, "[5]": {"molecular_target": "RGD peptide (cyclo(Arg-Gly-Asp-D-Phe-Cys))", "assay": "STM junction, bare probe (NA), RGD peptide on substrate only, gap Z0 + 2 nm"}, "[6]": {"molecular_target": "RGD peptide (cyclo(Arg-Gly-Asp-D-Phe-Cys))", "assay": "method not stated"}},
  "note": "Read-outs that look alike come from different tables or passages of the source.",
  "data": [
    {"substance": "αVβ3 Integrin (receptor)", "values": [
      {"measurement": "Peak Conductance (nS), Binding Mode NS-S", "setting": "[1]", "value": 0.38, "unit": "nS"},
      {"measurement": "Frequency with which sweeps yielded an IV curve", "setting": "[2]", "value": 10.5, "unit": "%"},
      {"measurement": "Frequency with which sweeps yielded an IV curve", "setting": "[3]", "value": 35.9, "unit": "%"},
      {"measurement": "Frequency with which sweeps yielded an IV curve", "setting": "[4]", "value": 23.7, "unit": "%"},
      {"measurement": "Frequency with which sweeps yielded an IV curve", "setting": "[5]", "value": 0, "unit": "%"},
      {"measurement": "Kd", "setting": "[6]", "value": 10, "unit": "nM"}
    ]}
  ]
}
